This note sets out measurements from the nanobody polyreactivity screen of Harvey et al. (2022).

The data set can be described thus: yeast display, Sf9 membrane polyspecificity reagent, FACS + sequencing; frameworks hold sequencing errors. The method, boiled down: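 In a synthetic yeast display library (Saccharomyces cerevisiae BJ5465), nanobody expression was induced with galactose for 36–48 hours. FACS gates were set low and high (top ~1%) using anti-HA fluorescence for expression and streptavidin fluorescence for binding of the Sf9 membrane reagent. Each polyreactivity label is drawn from the gate of origin.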
Turning to “QVQLVESGGGLVQAGGSLRLSCAASGSIFTPNTMGWYRQAPGKEREFVAAITFSGGSTYYADSVKGRFTISRDNAKNTVYLQMNSLKPEDTAVYYCAAVYPTYDWYTPAYYYWGQGTQVTVSS”, the “polyreactivity (PSR sort gate)” value was “low polyreactivity”. In the case of “QVQLVESGGGLVQAGGRLRLSCAASGFIFPLYAMGWYRQAPGKERELVAAIRASSGSTYYADSVKGRFTISRDNAKNSVYLQMNSLKPEDTAVYYCNARQYVWYPYEYWGQGTQVTVSS”, the “polyreactivity (PSR sort gate)” value was “high polyreactivity”. On to “QVQLVESGGGLVQAGGSLRLSCAASGIIFSIYVMGWYRQAPGKERELVAAISSNGGSTYYADSVKGRFTISRDNAKNTVYLQMNSLKPEDTAVYYCAAVSRSHYYYWGQGTQVTVSS”, for which the “polyreactivity (PSR sort gate)” value is “high polyreactivity”. With “QDQLVESGGGLVQAGGSLRLSCAASGATYRNNAMGWYRQAPGKERELVAAISRGGGSTYYADSVNGRFTISRDNAKNNVYLQMNSLKPEDTAVYYCARRPTGIYDYWGQGTQVTVSS” the entry was “high polyreactivity”; with “QVQLVESGGGLVQAGGSLRLSCAASGSTFDDNAMGGYREAPRKERELVAGISDGDDSTNYADSVKGRFTISRDNAKNTVYLQMNSLTPEDTEVYFCNARYVRTYGVRFGYDYWGQGTQVTVSS”, “low polyreactivity”; with “QVQLVESGGGLVQGGGSLRLSCAASGSTFSRYAMGWYRPAPGKERELVAAITGTGGRTYYADSVKGRFTISRANAKNTVYLQRNSLKPEDTAVYYCAAQRWTVKYNYWGQGTQVTVSS”, “high polyreactivity”. On to “QVQLVESGGGLVQAGGSLRLSCDASGSIFPHNAMGWYRQAPGKERELVAAISVSGGSKYYADSVKGRFTISRDNAKNTVYLQMNSLKPEDTAVYYCAAYAYGGRINGYRTYRYNYWGQGTQVTVSS”, for which the “polyreactivity (PSR sort gate)” value is on record as “high polyreactivity”. With “QVQLVESGGRLVQAGGSLRLSCAASGSTFGPYTMGWYRQAPGKERELVATISSGGSTYYADSVKGRFTISRDNAKNTVYLQMNSLKPEDTAVYYCAARYWSIYDYWGQGTQVTVSS” the entry was “low polyreactivity”. With “QVQLVESGGGLVQAGGSLRLSCAASGSTFSSYAMGWYRQAPGKERELVAAISSRGGRTYYADSVKGRFTISRDNAKNTVYLQMNSLKPEDTAVYYCAVVPFTEHDYWGQGTQVTVSS” the entry was “high polyreactivity”; with “QVQLVESGGGLVQAGGSLRLSCAASGRTFKNYAMGWYRQAPGKERELVAAISRRGSSTYYADSVKGRFTISRDNAKNTVYLQMNSLKPEDTAVYYCNAVKFTYGWLGYWGQGTQVTVSS”, “high polyreactivity”; with “QVQLVESGGGLVQAGGSLRLSCAASGFTFPSYAMGWYRQAPGKDREFVAGITKGGGNTYYADSVKGRFTISRDNAKNNVYLQMNSLKPEDTAVYYCAKCPLPRAGVKFDYWGQGTQVTVSS”, “low polyreactivity”. Regarding “QVHLVESGGGLVQAGGSLRLSCASSGTTFRYYAMGCYRQAPGKERELVAAITYRGGRTYYADSVKGRFTISRDNPKNTVYLQMNSLKPEDTAVYYCAGKSGGDSMDSWGQGTQVTVSS”, the “polyreactivity (PSR sort gate)” value is listed as “low polyreactivity”. With “QVQLVESGGGLVQAGGSLRLSCAASGRTFVIYTMGWYRQAPGKERELVAAITQRGGITYYADSVKGRFTISRDNAKNTVYLQMNSLKPEDTAVYYCNSGRTYRRLGDYWGQGTQVTVSS” the entry was “high polyreactivity”; with “QVQLVESGGGLVQAGGSLRLSCAASGSILSWYAMGWYRQAPGKERELVAAITSGASTYYADSVKGRFTISRDNAKNTVYLQMNSLKPEDTAVYYCAAYPPSQRAEYDYWGQGTQVTVSS”, “low polyreactivity”.

Consider “QVQLVESGGGLVQAGGSLRLSCAASGLTFWWYAMGWYRQAPGKERELVAAISSSGGSTYYADSVKGRFTISRDNAKNTVYLQMNSLKPEDTAVYYCAVASWDNYWDPYGYWGQGTQVTVSS”, for which the “polyreactivity (PSR sort gate)” value is on record as “low polyreactivity”. With “QVQLVESGGGLVQAGGSLRLSCAASGFTFSRNAMGWYIQAPGKERELVAAISQSGGSTYYADSVKGRFTISRDNAKNTVYLQMNSLKPEDTAVYYCAAQSFAQYGWRYGYWGQGTQVTVSS” the entry was “high polyreactivity”; with “QVQLVESGGGLVQAGGSLRLSCAASGGTIAPYAMGWYRQAPGKERELVATISYSGTSTNYADSVKGRFTISRDNAKNTVYLQMNSLKPEDTAVYYCAKRYHQYRWRGWLWGFDYWGQGTQVTVSS”, “high polyreactivity”; with “QVQLVESGGGLVQAGGSLRLSCAASGSTFKYYGMGWYRQAPGKERELVASISSSGTRTYYADSVKGRFTISRDNAKYTVYLQMNSLKPEDTAVYYCAADSYATYFLYDSWGQGTQVTVSS”, “low polyreactivity”. Consider “QVQLVESVGGVVQAGGSLRLSCAASGSIFRWNAMGWYRQARGKEWELVAVNTWRGGRTYYADSVKGRFTFSRDNAKKTVYLQMNSLNPEYTSFSYCAKGRLVTTLFGHYATCEYDSWGHGTQVTVSS”, for which the “polyreactivity (PSR sort gate)” value was “high polyreactivity”. On to “QVQLVESGGGLVQAGCSLSISCAASGSTFFRYAMGLYRQAPGKERELVAAISKSGASTYYADSVKGSFTISRDNAKNTVYLQMNRLKPEDTAVYYCNADVKKSSAREWQYCYDYWGQGTQVTVSS”, for which the “polyreactivity (PSR sort gate)” value was “low polyreactivity”. With “QVQLVESGGGLVQGGGSLRLSCAASGRTFQRYAMGWYRQAPGKERELVAAISNRGGSTYYADSVKGRFTISRDNAKNTVYLQMNSLKPEDTAVYYCRTSTPRRVSGNYWGQGTQVTVSS” the entry was “high polyreactivity”; with “QVQLVESGGGLVQAGGSLRLSCAASGLIFYVYAMGWYRQAPGKERELVADITYSGGRTYYADSVKGRFTISRDKAKNTVYLQMNSLKPEDTAVYYCAADSVKYGIDPGLPNSDDYWGQGTQVTVSS”, “low polyreactivity”.

Turning to “QVHLVESGGALVQAGASLRLSCAASGFTYGLYSMGWYRQAPGKERELVAVISSSGGSTYYADSVKGRFTISRDNAKNTVYLQMNRLKPEDTAVYYCAAEWLDYKFDVSYDYWGQCTQVTVSS”, the “polyreactivity (PSR sort gate)” value is recorded as “low polyreactivity”. As to “QVQLVESGGGLVQAGGSLRLSCAASGRTFVTYAMGWYRQAPGKERELVAAISASGGSTYYADSVKGRFTISRDNAKNTVYLQMNSLKTEDTAVYYCAKTYFLATPYGYWGQGTQVTVSS”, the “polyreactivity (PSR sort gate)” value is “low polyreactivity”.

Consider “QVQLVESGGGLVQAGGSLRLSCAASGRTLTQNAMGWYRQAPGKERELVATISWTAGSTYYADSVKGRFTISRDNAKNTVYLQMNSLKPEDTAVYYCAADVFYSIYDYWGQGTQVTVSS”, for which the “polyreactivity (PSR sort gate)” value was “low polyreactivity”. Next, “QVQLVESGGGLVQAGGSLRLSCAASGITFYYYAMGWYRQAPGKERELVAAISWSGGRTYYADSVKGRFTISRDNAKNTVYLQMNSLKPEDTAVYYCAAGYYLYHFVSLYGGDYWGQGTQVTVSS”: “high polyreactivity”; “QVQLVESGGGLVQAGGSLRLSCAASGSIFESYARGWYRHSPGKERELVADITYHGGITYYADSVKGRFTISRDNAKNNFYLQMNSLKPEDTSVYYCAAESEKWYNYVLSYDWEYDYWGQGTQVTVSS”: “low polyreactivity”. Next, “QVQLVESGGGLVQAGGSLRLSCAASGSTFRGYAMGWYRQAPGKERELVATITSGGSTNYADSVKGRFTISRDNAKNTVYLQMNSLKPEDTAVYYCNARWVPRYWKYFPANYGYWGLGTQVTVSS”: “high polyreactivity”. Take “QVQLVESGGGLVHAGGSLRLSCAASGITYSRYAMGWYRQAPGKERELVAAITWDGGRTYYADTVKGRFTISRDIAKNTVYLQMNSVKPEDTAVYYCAAGSAWWYYWGQGTQVTVSS”: the “polyreactivity (PSR sort gate)” value was “high polyreactivity”.

Take “QVQLVESGGGLVQAGGSLRLSCAASGSIFSSYVMGWYRQAPGKERELVAAITFSGATTYYADSVKGRFTISRDNAKNTVYLQMNSLKPEDTAVYYCATKAYTTGRYYWGQGTQVTVSS”: the “polyreactivity (PSR sort gate)” value is listed as “high polyreactivity”. Next, “QVQLVESGGGLVQAGGSLRLSCAASGSTFSKNAMGWYRQAPGKERELVASISTDGDSTYYADSVKGRFTISRDNAKNTVYFQMNSLKPEDTAVYYCNVVYYGRTWVPYVWEYDYWGQGTQVTVSS”: “low polyreactivity”; “QVQIVESGGGLVQAGGSLRLSCAASGRTVKFYAMGWYRQAPGKERELVARITSNSGSTYYADSVKGRFTISRDNAKNTVYLQMNSLKPEDTAVYYCAARGRYRQFNYWGQGTQVTVSS”: “high polyreactivity”.

With “QVQLVESGGGLVQAGGSLRLSCAASGFIIYYYAMGWYRQAPGKERELVARISRRGGSTYYADSVKGRFTISRDNAKNTVYLQMNSLKPEDTAVYYCNAERRYSWYSQGDYWGQGTQVSVSS”, the “polyreactivity (PSR sort gate)” value was “high polyreactivity”. Take “QVQLVESGGGLVQAGGSLRLICAASGTFVTYMGWYRQAPGKERELVAAIRNGGSTNYADSVKGRFTISRDNAKNTVYLQMNSLKPEDTAVYYCAARVTYSRGYRGGSRTKYDYWGQGTQVTVSS”: the “polyreactivity (PSR sort gate)” value is recorded as “low polyreactivity”. Next, “QFQLVESRGGLVKAGGSLRLTCAASGSILYQNTMGWYRQATGKERELVAAISGSGSRTYYADSVKGRFTISRDNAKNTVYLQMNSLKPEDTAVYYCAASGYWPFRSGFGYWGQGTQVTVSS”: “high polyreactivity”; “QVQLVESGVGLVQAGGSLRLSCAASGGTFPYYAMGWYRQAPGKERELVAAISRSGARTYYADSVKGRFTISRDNAKNTVYLQMNSLKPEDTAVYYCATDNTYGYDYWGQGTQVTVSS”: “high polyreactivity”. With “QVQLVESGGGLFQAGGSLRLSCAASGRIFGFYAMGWYRQAPGKERELVARITLSGGRTYYADSVKGRFTISRDNAKNTVYLQMNSLKPEDTAVYYCAADSIGRLWGYGYWGQGTQVTVSS” the entry was “high polyreactivity”. Next, “QVQLVYSGGGLVQAGGSLRLSCAASGRTFARYAMGWYIQAPWKERELVAAITRSGGSTTYADSVKGLFTISRDNAKNTVYVQLYSLKPVYTAVYFCASSTSLRLDYWGQGTQVTVSS”: “high polyreactivity”.

“QVQLVESAGGLVQAGGSLRLSCAASGFTFGENALGWYRQAPGKERELVAAIRYSGGSTYYADSVKGRFTLSRDNAKNTVYLQLNSLKAEDTAVYYCNADTYALGAAVIPGDEYWGQGTQVTVSS”: the “polyreactivity (PSR sort gate)” value is recorded as “low polyreactivity”. With “QVQLVESGGGLVQAGGSLRLICAASGSIIHKNAMGWYRQAPGKERELVARITSSSGSTYYADSVKGRFTISRDNAKNTVYLQMNSLKPEDTAVYYFNAVYYHDVDFDYWGQGTQVTVSS” the entry was “high polyreactivity”; with “QVQLIESGGGLVQAGGSLRLSCAASGSTGIYAMGWYRQAPGKERELVAAITRRAGSTYYADSVKGRFTISRDNAKNTVYLQMNSLKPEDTAVYYCAAKGLWWYGTYVSYEYWGKGTQVTVSS”, “low polyreactivity”.
